Laboratory results from PMC3277881 (Molecular Cell, 2011).
Each block holds one binder with its values, some of them ahead of it.

T1: Atg3 (yeast) (yeast (budding yeast), UniProt P40344 1-310)
T1 sequence: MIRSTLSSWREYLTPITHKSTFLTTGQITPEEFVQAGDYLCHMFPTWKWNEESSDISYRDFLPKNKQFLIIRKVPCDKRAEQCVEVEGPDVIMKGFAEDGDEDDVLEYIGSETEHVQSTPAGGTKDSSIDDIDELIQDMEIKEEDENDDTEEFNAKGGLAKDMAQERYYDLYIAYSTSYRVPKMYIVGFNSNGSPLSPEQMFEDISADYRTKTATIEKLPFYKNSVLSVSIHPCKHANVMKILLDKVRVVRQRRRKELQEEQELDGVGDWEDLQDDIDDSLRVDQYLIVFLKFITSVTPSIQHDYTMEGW

B1: full-length yeast Atg7 (enzyme, yeast (budding yeast), UniProt P38862 1-630, looked up)
chain: MSSERVLSYAPAFKSFLDTSFFQELSRLKLDVLKLDSTCQPLTVNLDLHNIPKSADQVPLFLTNRSFEKHNNKRTNEVPLQGSIFNFNVLDEFKNLDKQLFLHQRALECWEDGIKDINKCVSFVIISFADLKKYRFYYWLGVPCFQRPSSTVLHVRPEPSLKGLFSKCQKWFDVNYSKWVCILDADDEIVNYDKCIIRKTKVLAIRDTSTMENVPSALTKNFLSVLQYDVPDLIDFKLLIIRQNEGSFALNATFASIDPQSSSSNPDMKVSGWERNVQGKLAPRVVDLSSLLDPLKIADQSVDLNLKLMKWRILPDLNLDIIKNTKVLLLGAGTLGCYVSRALIAWGVRKITFVDNGTVSYSNPVRQALYNFEDCGKPKAELAAASLKRIFPLMDATGVKLSIPMIGHKLVNEEAQHKDFDRLRALIKEHDIIFLLVDSRESRWLPSLLSNIENKTVINAALGFDSYLVMRHGNRDEQSSKQLGCYFCHDVVAPTDSLTDRTLDQMCTVTRPGVAMMASSLAVELMTSLLQTKYSGSETTVLGDIPHQIRGFLHNFSILKLETPAYEHCPACSPKVIEAFTDLGWEFVKKALEHPLYLEEISGLSVIKQEVERLGNDVFEWEDDESDEIA
B2: Atg3^ΔFR (yeast Atg3 with the FR region, residues 86-159, deleted) (enzyme, yeast (budding yeast))
chain: MIRSTLSSWREYLTPITHKSTFLTTGQITPEEFVQAGDYLCHMFPTWKWNEESSDISYRDFLPKNKQFLIIRKVPCDKRAEQCVEAKDMAQERYYDLYIAYSTSYRVPKMYIVGFNSNGSPLSPEQMFEDISADYRTKTATIEKLPFYKNSVLSVSIHPCKHANVMKILLDKVRVVRQRRRKELQEEQELDGVGDWEDLQDDIDDSLRVDQYLIVFLKFITSVTPSIQHDYTMEGW
B3: Atg7 C-terminal domain (Atg7^CTD), yeast (domain or fragment, yeast (budding yeast))
chain: SSLLDPLKIADQSVDLNLKLMKWRILPDLNLDIIKNTKVLLLGAGTLGCYVSRALIAWGVRKITFVDNGTVSYSNPVRQALYNFEDCGKPKAELAAASLKRIFPLMDATGVKLSIPMIGHKLVNEEAQHKDFDRLRALIKEHDIIFLLVDSRESRWLPSLLSNIENKTVINAALGFDSYLVMRHGNRDEQSSKQLGCYFCHDVVAPTDSLTDRTLDQMCTVTRPGVAMMASSLAVELMTSLLQTKYSGSETTVLGDIPHQIRGFLHNFSILKLETPAYEHCPACSPKVIEAFTDLGWEFVKKALEHPLYLEEISGLSVIKQEVERLGNDVFEWEDDESDEIA
B4: Atg7 N-terminal domain (Atg7^NTD), yeast (domain or fragment, yeast (budding yeast), UniProt P38862 1-289, looked up)
chain: MSSERVLSYAPAFKSFLDTSFFQELSRLKLDVLKLDSTCQPLTVNLDLHNIPKSADQVPLFLTNRSFEKHNNKRTNEVPLQGSIFNFNVLDEFKNLDKQLFLHQRALECWEDGIKDINKCVSFVIISFADLKKYRFYYWLGVPCFQRPSSTVLHVRPEPSLKGLFSKCQKWFDVNYSKWVCILDADDEIVNYDKCIIRKTKVLAIRDTSTMENVPSALTKNFLSVLQYDVPDLIDFKLLIIRQNEGSFALNATFASIDPQSSSSNPDMKVSGWERNVQGKLAPRVVDLS

What was measured:
AUC = molecular target: the molecule itself; assay: AUC
full-length yeast Atg7 = molecular target: B1; assay: ITC
Atg3 (yeast) = molecular target: T1, Atg3 (yeast); assay: ITC

Binder: B1
stoichiometry N (AUC): 2

Binder: B2
fold change of Kd against Atg3 (full-length yeast Atg7): > 40 fold

Binder: B3
stoichiometry N (AUC): 2

Kd (full-length yeast Atg7): 5.9 µM
Binder: SIDDIDELIQDMEIKEE (peptide, UniProt P40344 128-144, looked up) [synthetic peptide encompassing Atg3 residues 128-144 (Atg3^FRpep)]

Binder: B4
Kd (Atg3 (yeast)): 1.85 µM
